# Test results as given in patent US20160279196A1 (US Dept. of Health and Human Services, published 2016).
# Like-named read-outs stand apart in the source and are kept apart here.
# How the values were obtained:
# [1] = target: T1, naturally processed and presented SSX-2 protein on SSX-2+/HLA-A2+ target cells (human); assay: cell-based or functional assay
# [2] = target: T1, naturally processed and presented SSX-2 …; assay: cell-based or functional assay; remark: listed apart in the source
Binder,"interferon-γ levels (pg/ml), co-culture with 293-A2-SSX2 cells [1]","interferon-γ levels (pg/ml), co-culture with 624 mel cells [1]","interferon-γ levels (pg/ml), co-culture with 938-A2 mel cells [1]","interferon-γ levels (pg/ml), co-culture with 1300 mel cells [1]","interferon-γ levels (pg/ml), co-culture with COS-A2-SSX2 cells [1]","interferon-γ levels (pg/ml), co-culture with K562-A2- Erythroleukemia cells [1]","interferon-γ levels (pg/ml), co-culture with SKOV3 Ovarian cells [1]","interferon-γ levels (pg/ml), co-culture with Skmel 37 cells [1]","interferon-γ levels (pg/ml), co-culture with U251 Glioma cells [1]","interferon-γ levels (pg/ml), co-culture with 293-A2-SSX2 cells [2]","interferon-γ levels (pg/ml), co-culture with 624 mel cells [2]","interferon-γ levels (pg/ml), co-culture with 938-A2 mel cells [2]","interferon-γ levels (pg/ml), co-culture with 1300 mel cells [2]","interferon-γ levels (pg/ml), co-culture with COS-A2-SSX2 cells [2]","interferon-γ levels (pg/ml), co-culture with K562-A2- Erythroleukemia cells [2]","interferon-γ levels (pg/ml), co-culture with SKOV3 Ovarian cells [2]","interferon-γ levels (pg/ml), co-culture with Skmel 37 mel cells [2]","interferon-γ levels (pg/ml), co-culture with U251 Glioma cells [2]"
codon-optimized human-mouse chimera SSX-2 TCR (codon-optimized SSX-2 TCR including mouse constant region; expressed from the vector comprising SEQ ID NO: 30) (TCR) TCR alpha: MSLSSLLKVVTASLWLGPGIAQKITQTQPGMFVQEKEAVTLDCTYDTSDPSYGLFWYKQPSSGEMIFLIYQGSYDQQNATEGRYSLNFQKARKSANLVISASQLGDSAMYFCAMTSGFGNEKLTFGTGTRLTIIPNDIQNPEPAVYQLKDPRSQDSTLCLFTDFDSQINVPKTMESGTFITDKTVLDMKAMDSKSNGAIAWSNQTSFTCQDIFKETNATYPSSDVPCDATLTEKSFETDMNLNFQNLSVMGLRILLLKVAGFNLLMTLRLWSS TCR beta: MGPGLLHWMALCLLGTGHGDAMVIQNPRYQVTQFGKPVTLSCSQTLNHNVMYWYQQKSSQAPKLLFHYYDKDFNNEADTPDNFQSRRPNTSFCFLDIRSPGLGDAAMYLCATSRGQGGQPQHFGDGTRLSILEDLRNVTPPKVSLFEPSKAEIANKQKATLVCLARGFFPDHVELSWWVNGKEVHSGVSTDPQAYKESNYSYCLSSRLRVSATFWHNPRNHFRCQVQFHGLSEEDKWPEGSPKPVTQNISAEAWGRACGITSSYQQGVLSATILYEILLGKATLYAVLVSTLVVMAMVKRKNS,47300 pg/mL,57700 pg/mL,40000 pg/mL,3460 pg/mL,164000 pg/mL,13600 pg/mL,9860 pg/mL,10600 pg/mL,20000 pg/mL,37300 pg/mL,47000 pg/mL,51100 pg/mL,2720 pg/mL,56900 pg/mL,17400 pg/mL,2220 pg/mL,10400 pg/mL,19000 pg/mL
"SSX-2 TCR (HLA-A2 restricted TCR from a natural T cell clone, TRAV14/DV4*01 and TRBV15*02-CB1; expressed from the vector comprising SEQ ID NO: 27) (TCR) TCR alpha: MSLSSLLKVVTASLWLGPGIAQKITQTQPGMFVQEKEAVTLDCTYDTSDPSYGLFWYKQPSSGEMIFLIYQGSYDQQNATEGRYSLNFQKARKSANLVISASQLGDSAMYFCAMTSGFGNEKLTFGTGTRLTIIPNIQNPDPAVYQLRDSKSSDKSVCLFTDFDSQTNVSQSKDSDVYITDKTVLDMRSMDFKSNSAVAWSNKSDFACANAFNNSIIPEDTFFPSPESSCDVKLVEKSFETDTNLNFQNLSVIGFRILLLKVAGFNLLMTLRLWSS TCR beta: MGPGLLHWMALCLLGTGHGDAMVIQNPRYQVTQFGKPVTLSCSQTLNHNVMYWYQQKSSQAPKLLFHYYDKDFNNEADTPDNFQSRRPNTSFCFLDIRSPGLGDAAMYLCATSRGQGGQPQHFGDGTRLSILEDLNKVFPPEVAVFEPSEAEISHTQKATLVCLATGFFPDHVELSWWVNGKEVHSGVSTDPQPLKEQPALNDSRYCLSSRLRVSATFWQNPRNHFRCQVQFYGLSENDEWTQDRAKPVTQIVSAEAWGRADCGFTSVSYQQGVLSATILYEILLGKATLYAVLVSALVLMAMVKRKDF",52500 pg/mL,60200 pg/mL,46100 pg/mL,3160 pg/mL,85900 pg/mL,12800 pg/mL,11000 pg/mL,8940 pg/mL,22900 pg/mL,29800 pg/mL,27300 pg/mL,37000 pg/mL,2560 pg/mL,52600 pg/mL,12500 pg/mL,2410 pg/mL,6640 pg/mL,16700 pg/mL
codon-optimized SSX-2 TCR (expressed from the vector comprising SEQ ID NO: 29) (TCR) TCR alpha: MSLSSLLKVVTASLWLGPGIAQKITQTQPGMFVQEKEAVTLDCTYDTSDPSYGLFWYKQPSSGEMIFLIYQGSYDQQNATEGRYSLNFQKARKSANLVISASQLGDSAMYFCAMTSGFGNEKLTFGTGTRLTIIPNIQNPDPAVYQLRDSKSSDKSVCLFTDFDSQTNVSQSKDSDVYITDKTVLDMRSMDFKSNSAVAWSNKSDFACANAFNNSIIPEDTFFPSPESSCDVKLVEKSFETDTNLNFQNLSVIGFRILLLKVAGFNLLMTLRLWSS TCR beta: MGPGLLHWMALCLLGTGHGDAMVIQNPRYQVTQFGKPVTLSCSQTLNHNVMYWYQQKSSQAPKLLFHYYDKDFNNEADTPDNFQSRRPNTSFCFLDIRSPGLGDAAMYLCATSRGQGGQPQHFGDGTRLSILEDLNKVFPPEVAVFEPSEAEISHTQKATLVCLATGFFPDHVELSWWVNGKEVHSGVSTDPQPLKEQPALNDSRYCLSSRLRVSATFWQNPRNHFRCQVQFYGLSENDEWTQDRAKPVTQIVSAEAWGRADCGFTSVSYQQGVLSATILYEILLGKATLYAVLVSALVLMAMVKRKDF,49100 pg/mL,47100 pg/mL,51200 pg/mL,3050 pg/mL,138000 pg/mL,13600 pg/mL,22500 pg/mL,11400 pg/mL,21400 pg/mL,37500 pg/mL,37500 pg/mL,46300 pg/mL,2600 pg/mL,64100 pg/mL,21300 pg/mL,2530 pg/mL,8870 pg/mL,19200 pg/mL
